We go through twelve molecules from patent EP1516629B1.

Assay [1] concerns the target T1, human CD11a (human) (UniProt P20701).
T1 sequence (looked up): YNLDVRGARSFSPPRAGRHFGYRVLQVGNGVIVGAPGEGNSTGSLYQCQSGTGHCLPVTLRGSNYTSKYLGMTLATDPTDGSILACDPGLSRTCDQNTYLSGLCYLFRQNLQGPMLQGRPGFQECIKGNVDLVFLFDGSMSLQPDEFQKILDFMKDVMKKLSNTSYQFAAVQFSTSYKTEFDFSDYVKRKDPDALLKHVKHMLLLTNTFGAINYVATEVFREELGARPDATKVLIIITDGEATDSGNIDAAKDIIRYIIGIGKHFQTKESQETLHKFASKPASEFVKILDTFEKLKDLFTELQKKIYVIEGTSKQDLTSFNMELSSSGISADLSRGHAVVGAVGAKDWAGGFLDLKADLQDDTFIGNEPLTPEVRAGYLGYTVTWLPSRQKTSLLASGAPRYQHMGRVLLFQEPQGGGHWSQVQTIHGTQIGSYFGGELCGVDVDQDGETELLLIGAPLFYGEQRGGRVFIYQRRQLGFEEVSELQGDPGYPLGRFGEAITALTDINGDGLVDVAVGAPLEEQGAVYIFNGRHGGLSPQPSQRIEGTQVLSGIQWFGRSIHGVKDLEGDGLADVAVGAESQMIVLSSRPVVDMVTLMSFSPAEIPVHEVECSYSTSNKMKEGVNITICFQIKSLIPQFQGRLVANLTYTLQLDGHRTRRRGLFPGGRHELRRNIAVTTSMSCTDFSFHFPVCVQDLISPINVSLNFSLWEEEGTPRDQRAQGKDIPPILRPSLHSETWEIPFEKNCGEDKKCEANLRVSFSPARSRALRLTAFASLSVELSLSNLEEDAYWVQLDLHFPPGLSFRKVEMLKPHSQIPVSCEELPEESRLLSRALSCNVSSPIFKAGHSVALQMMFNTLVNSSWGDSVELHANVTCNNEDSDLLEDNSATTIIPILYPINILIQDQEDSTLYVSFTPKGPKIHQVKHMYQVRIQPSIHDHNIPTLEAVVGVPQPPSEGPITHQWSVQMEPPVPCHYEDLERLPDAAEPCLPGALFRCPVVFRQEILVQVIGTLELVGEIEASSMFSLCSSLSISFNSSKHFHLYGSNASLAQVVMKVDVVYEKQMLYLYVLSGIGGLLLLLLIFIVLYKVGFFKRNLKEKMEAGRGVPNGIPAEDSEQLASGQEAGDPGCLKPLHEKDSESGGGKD
In words: FACScan, Jurkat cells.

Assay [2] has as its target T2, rhesus CD11a (rhesus) (UniProt H9Z8N3).
T2 sequence: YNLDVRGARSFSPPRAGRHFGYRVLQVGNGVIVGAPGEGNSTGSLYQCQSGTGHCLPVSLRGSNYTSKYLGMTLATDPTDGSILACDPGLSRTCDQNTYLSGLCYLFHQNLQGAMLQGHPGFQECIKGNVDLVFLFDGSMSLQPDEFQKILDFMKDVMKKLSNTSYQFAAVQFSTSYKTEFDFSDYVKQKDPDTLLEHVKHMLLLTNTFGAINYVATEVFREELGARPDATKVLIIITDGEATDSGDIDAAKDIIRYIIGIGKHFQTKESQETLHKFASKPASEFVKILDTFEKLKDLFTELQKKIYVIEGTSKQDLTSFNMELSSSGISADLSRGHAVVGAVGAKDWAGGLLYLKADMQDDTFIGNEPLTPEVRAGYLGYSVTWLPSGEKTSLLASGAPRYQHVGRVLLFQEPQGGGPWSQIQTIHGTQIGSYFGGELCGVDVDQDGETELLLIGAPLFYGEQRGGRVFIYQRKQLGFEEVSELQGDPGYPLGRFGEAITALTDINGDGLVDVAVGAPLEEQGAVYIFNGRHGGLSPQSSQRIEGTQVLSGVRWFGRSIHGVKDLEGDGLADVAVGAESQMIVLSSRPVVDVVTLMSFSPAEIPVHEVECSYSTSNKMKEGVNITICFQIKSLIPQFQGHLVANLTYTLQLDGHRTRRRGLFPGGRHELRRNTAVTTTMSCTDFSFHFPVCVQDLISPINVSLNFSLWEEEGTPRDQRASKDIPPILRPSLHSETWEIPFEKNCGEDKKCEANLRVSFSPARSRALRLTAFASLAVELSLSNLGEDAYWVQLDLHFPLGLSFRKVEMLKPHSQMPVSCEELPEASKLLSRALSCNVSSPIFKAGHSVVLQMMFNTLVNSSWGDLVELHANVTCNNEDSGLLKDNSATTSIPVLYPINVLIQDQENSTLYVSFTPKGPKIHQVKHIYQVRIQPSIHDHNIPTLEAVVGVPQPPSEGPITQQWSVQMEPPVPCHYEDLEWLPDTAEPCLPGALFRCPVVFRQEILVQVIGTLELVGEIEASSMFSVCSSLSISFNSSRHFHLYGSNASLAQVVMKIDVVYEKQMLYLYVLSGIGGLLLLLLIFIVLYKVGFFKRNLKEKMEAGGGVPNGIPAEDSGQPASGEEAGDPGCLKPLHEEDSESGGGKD
Description: binding to rhesus peripheral blood lymphocytes.

B1: SerL50Ala variant IgG1 (antibody, V domains shown)
VH: EVQLVESGGGLVQPGGSLRLSCAASGYSFTGHWMNWVRQAPGKGLEWVGMIHPSDSETRYNQKFKDRFTISVDKSKNTLYLQMNSLRAEDTAVYYCARGIYFYGTTYFDYWGQGTLVTVSS
VL: DIQMTQSPSSLSASVGDRVTITCRASKTISKYLAWYQQKPGKAPKLLIYAGSTLQSGVPSRFSGSGSGTDFTLTISSLQPEDFATYYCQQHNEYPLTFGQGTKVEIKR
For B1, the Var.EC50/HuIgG1 EC50 in assay [1] turned out to be 1.2; in assay [2] it was 2.7.

B2: AsnL92Ala variant IgG1 (antibody, V domains shown)
VH: EVQLVESGGGLVQPGGSLRLSCAASGYSFTGHWMNWVRQAPGKGLEWVGMIHPSDSETRYNQKFKDRFTISVDKSKNTLYLQMNSLRAEDTAVYYCARGIYFYGTTYFDYWGQGTLVTVSS
VL: DIQMTQSPSSLSASVGDRVTITCRASKTISKYLAWYQQKPGKAPKLLIYSGSTLQSGVPSRFSGSGSGTDFTLTISSLQPEDFATYYCQQHAEYPLTFGQGTKVEIKR
For B2, the Var.EC50/HuIgG1 EC50 in assay [1] and in assay [2] was 3.3 in each case.

B3: AspH54Ala variant IgG1 (antibody, V domains shown)
VH: EVQLVESGGGLVQPGGSLRLSCAASGYSFTGHWMNWVRQAPGKGLEWVGMIHPSASETRYNQKFKDRFTISVDKSKNTLYLQMNSLRAEDTAVYYCARGIYFYGTTYFDYWGQGTLVTVSS
VL: DIQMTQSPSSLSASVGDRVTITCRASKTISKYLAWYQQKPGKAPKLLIYSGSTLQSGVPSRFSGSGSGTDFTLTISSLQPEDFATYYCQQHNEYPLTFGQGTKVEIK
For the molecule B3, in assay [1], the Var.EC50/HuIgG1 EC50 came out at 147 and the Variant EC50/HulgG1 EC50 was 147. In assay [2], this molecule gave a Var.EC50/HuIgG1 EC50 of 0.3, a Variant EC50/HulgG1 EC50 of 0.3 and a fold improvement in binding over HuIgG1 of 3 fold.

B4: ThrL53Ala variant IgG1 (antibody, V domains shown)
VH: EVQLVESGGGLVQPGGSLRLSCAASGYSFTGHWMNWVRQAPGKGLEWVGMIHPSDSETRYNQKFKDRFTISVDKSKNTLYLQMNSLRAEDTAVYYCARGIYFYGTTYFDYWGQGTLVTVSS
VL: DIQMTQSPSSLSASVGDRVTITCRASKTISKYLAWYQQKPGKAPKLLIYSGSALQSGVPSRFSGSGSGTDFTLTISSLQPEDFATYYCQQHNEYPLTFGQGTKVEIKR
Consider B4, for which the Var.EC50/HuIgG1 EC50 was 0.9 in assay [1] and 0.7 in assay [2].

B5: H2C10 variant IgG1 (antibody, V domains shown)
VH: EVQLVESGGGLVQPGGSLRLSCAASGYSFTGHWMNWVRQAPGKGLEWVGMIAPAASSTRYNQKFKDRFTISVDKSKNTLYLQMNSLRAEDTAVYYCARGIYFYGTTYFDYWGQGTLVTVSS
VL: DIQMTQSPSSLSASVGDRVTITCRASKTISKYLAWYQQKPGKAPKLLIYSGSTLQSGVPSRFSGSGSGTDFTLTISSLQPEDFATYYCQQHNEYPLTFGQGTKVEIK
For B5, the Var.EC50/HuIgG1 EC50 is 14.2 in assay [1] and 0.22 in assay [2].

B6: AspH54Gln variant IgG1 (antibody, V domains shown)
VH: EVQLVESGGGLVQPGGSLRLSCAASGYSFTGHWMNWVRQAPGKGLEWVGMIHPSQSETRYNQKFKDRFTISVDKSKNTLYLQMNSLRAEDTAVYYCARGIYFYGTTYFDYWGQGTLVTVSS
VL: DIQMTQSPSSLSASVGDRVTITCRASKTISKYLAWYQQKPGKAPKLLIYSGSTLQSGVPSRFSGSGSGTDFTLTISSLQPEDFATYYCQQHNEYPLTFGQGTKVEIK
With B6, the Variant EC50/HulgG1 EC50 in assay [1] stood at 20; in assay [2], 4.4.

B7: H2C7 variant IgG1 (antibody, V domains shown)
VH: EVQLVESGGGLVQPGGSLRLSCAASGYSFTGHWMNWVRQAPGKGLEWVGMIAPAASATRYNQKFKDRFTISVDKSKNTLYLQMNSLRAEDTAVYYCARGIYFYGTTYFDYWGQGTLVTVSS
VL: DIQMTQSPSSLSASVGDRVTITCRASKTISKYLAWYQQKPGKAPKLLIYSGSTLQSGVPSRFSGSGSGTDFTLTISSLQPEDFATYYCQQHNEYPLTFGQGTKVEIK
Consider B7, for which the Var.EC50/HuIgG1 EC50 in assay [1] was 2.4; in assay [2] it was 1.03.

B8: SerL52Ala variant IgG1 (antibody, V domains shown)
VH: EVQLVESGGGLVQPGGSLRLSCAASGYSFTGHWMNWVRQAPGKGLEWVGMIHPSDSETRYNQKFKDRFTISVDKSKNTLYLQMNSLRAEDTAVYYCARGIYFYGTTYFDYWGQGTLVTVSS
VL: DIQMTQSPSSLSASVGDRVTITCRASKTISKYLAWYQQKPGKAPKLLIYSGATLQSGVPSRFSGSGSGTDFTLTISSLQPEDFATYYCQQHNEYPLTFGQGTKVEIKR
For the molecule B8, the Var.EC50/HuIgG1 EC50 in assay [1] worked out at 1.1; in assay [2], 13.3.

B9: GluL93Ala variant IgG1 (antibody, V domains shown)
VH: EVQLVESGGGLVQPGGSLRLSCAASGYSFTGHWMNWVRQAPGKGLEWVGMIHPSDSETRYNQKFKDRFTISVDKSKNTLYLQMNSLRAEDTAVYYCARGIYFYGTTYFDYWGQGTLVTVSS
VL: DIQMTQSPSSLSASVGDRVTITCRASKTISKYLAWYQQKPGKAPKLLIYSGSTLQSGVPSRFSGSGSGTDFTLTISSLQPEDFATYYCQQHNAYPLTFGQGTKVEIKR
As to B9, the Var.EC50/HuIgG1 EC50 in assay [1] was found to be 1.7; in assay [2], 2.9.

B10: H2C5 variant IgG1 (antibody, V domains shown)
VH: EVQLVESGGGLVQPGGSLRLSCAASGYSFTGHWMNWVRQAPGKGLEWVGMIAPANSNTRYNQKFKDRFTISVDKSKNTLYLQMNSLRAEDTAVYYCARGIYFYGTTYFDYWGQGTLVTVSS
VL: DIQMTQSPSSLSASVGDRVTITCRASKTISKYLAWYQQKPGKAPKLLIYSGSTLQSGVPSRFSGSGSGTDFTLTISSLQPEDFATYYCQQHNEYPLTFGQGTKVEIK
Consider B10, for which the results for the Var.EC50/HuIgG1 EC50 in assay [1] and in assay [2] were 46 and 0.11, respectively.

B11: AspH54Asn variant IgG1 (antibody, V domains shown)
VH: EVQLVESGGGLVQPGGSLRLSCAASGYSFTGHWMNWVRQAPGKGLEWVGMIHPSNSETRYNQKFKDRFTISVDKSKNTLYLQMNSLRAEDTAVYYCARGIYFYGTTYFDYWGQGTLVTVSS
VL: DIQMTQSPSSLSASVGDRVTITCRASKTISKYLAWYQQKPGKAPKLLIYSGSTLQSGVPSRFSGSGSGTDFTLTISSLQPEDFATYYCQQHNEYPLTFGQGTKVEIK
For B11, in assay [1], the Variant EC50/HulgG1 EC50 was found to be 26. In assay [2], this molecule showed a Variant EC50/HulgG1 EC50 of 0.1 and a fold improvement in binding over HuIgG1 of 10 fold.

B12: H2A1 variant IgG1 (antibody, V domains shown)
VH: EVQLVESGGGLVQPGGSLRLSCAASGYSFTGHWMNWVRQAPGKGLEWVGMIAPADSETRYNQKFKDRFTISVDKSKNTLYLQMNSLRAEDTAVYYCARGIYFYGTTYFDYWGQGTLVTVSS
VL: DIQMTQSPSSLSASVGDRVTITCRASKTISKYLAWYQQKPGKAPKLLIYSGSTLQSGVPSRFSGSGSGTDFTLTISSLQPEDFATYYCQQHNEYPLTFGQGTKVEIK
Turning to B12, the Var.EC50/HuIgG1 EC50 in assay [1] came to 10.8. Moreover, in assay [2], the Var.EC50/HuIgG1 EC50 is 0.013 and the fold improvement in binding over HuIgG1 was determined as 77 fold.
